Read-outs that look alike come from different tables or passages of the source.
Legend:
[1] = isoelectric point (measured by isoelectric focusing); assay type: physicochemical; conditions: insulin derivatives of the invention
Method: Characteristic of these insulin derivatives is an isoelectric point between 5.8 and 8.5 (measured by isoelectric focusing). The isoelectric point--which is shifted into the neutral range by comparison with the isoelectric point of the unmodified native insulin or proinsulin (at pH = 5.4)--is determined by the additional positive charge(s) located on the surface of the molecule as a result of the basic modification. This makes these insulin derivatives with a basic modification less soluble in the physiological neutral range than is, for example, native insulin or proinsulin, which are normally in dissolved form in the neutral range.
The isoelectric point of the insulin derivatives of the formula II is between 5.5 and 9.0 (measured by isoelectric focusing).

[2] = unmodified native insulin or proinsulin, background; cited from earlier work

| Substance | isoelectric point [1] | isoelectric point [2] [pH] |
| --- | --- | --- |
| A0-Arg-de-Thr-B30-human insulin | about 6.2 | – |
| proinsulin: proinsulin, comparison for isoelectric point | – | 5.4 |
| native insulin: unmodified native insulin, comparison for isoelectric point and biological activity | – | 5.4 |
